# According to patent publication US20240158538A1 (HUMMINGBIRD BIOSCIENCE HOLDINGS PTE, published 2024):
# Positions count from the first letter of the chain named. Read-outs that look alike come from different tables or passages of the source.
# T1: B7H3 (ELISA coat) (human, UniProt Q5ZPR3 29-461, limits assumed)
# T1 construct: Species read from the list 'human VISTA, PD-1, PD-L1, ...'; also called CD276
# T1 sequence (looked up): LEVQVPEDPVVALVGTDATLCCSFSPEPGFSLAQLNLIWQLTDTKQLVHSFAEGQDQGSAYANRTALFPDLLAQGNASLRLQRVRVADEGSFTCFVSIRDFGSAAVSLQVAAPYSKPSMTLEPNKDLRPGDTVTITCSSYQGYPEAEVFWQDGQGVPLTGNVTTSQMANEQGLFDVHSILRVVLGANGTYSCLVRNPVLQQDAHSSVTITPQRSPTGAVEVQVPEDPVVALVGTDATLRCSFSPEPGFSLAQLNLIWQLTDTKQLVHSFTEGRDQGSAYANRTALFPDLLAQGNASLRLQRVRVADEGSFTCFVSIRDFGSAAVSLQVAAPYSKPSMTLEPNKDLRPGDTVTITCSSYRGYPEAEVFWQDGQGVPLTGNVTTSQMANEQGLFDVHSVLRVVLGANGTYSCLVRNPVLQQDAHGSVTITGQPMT
# T2: B7H4 (ELISA coat) (human, UniProt Q7Z7D3 25-258, limits assumed)
# T2 construct: Species read from the list 'human VISTA, PD-1, PD-L1, ...'; also called VTCN1
# T2 sequence (looked up): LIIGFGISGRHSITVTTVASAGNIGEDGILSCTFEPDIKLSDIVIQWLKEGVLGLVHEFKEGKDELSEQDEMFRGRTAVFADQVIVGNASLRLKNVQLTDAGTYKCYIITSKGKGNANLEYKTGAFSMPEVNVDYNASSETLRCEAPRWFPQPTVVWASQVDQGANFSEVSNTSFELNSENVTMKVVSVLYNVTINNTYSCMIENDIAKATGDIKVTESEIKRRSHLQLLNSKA
# T3: B7H6 (ELISA coat) (human, UniProt Q68D85 25-262, limits assumed)
# T3 construct: Species read from the list 'human VISTA, PD-1, PD-L1, ...'; also called NCR3LG1
# T3 sequence (looked up): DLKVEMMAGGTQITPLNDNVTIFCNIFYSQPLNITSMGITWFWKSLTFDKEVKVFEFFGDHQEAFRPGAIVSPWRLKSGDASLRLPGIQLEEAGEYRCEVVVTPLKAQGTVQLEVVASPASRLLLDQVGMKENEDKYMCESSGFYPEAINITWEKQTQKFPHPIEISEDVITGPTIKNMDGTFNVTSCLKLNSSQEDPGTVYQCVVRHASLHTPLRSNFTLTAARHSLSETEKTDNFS
# T4: B7H7 (ELISA coat) (human, UniProt Q9UM44 23-344, limits assumed)
# T4 construct: Species read from the list 'human VISTA, PD-1, PD-L1, ...'; also called HHLA2
# T4 sequence (looked up): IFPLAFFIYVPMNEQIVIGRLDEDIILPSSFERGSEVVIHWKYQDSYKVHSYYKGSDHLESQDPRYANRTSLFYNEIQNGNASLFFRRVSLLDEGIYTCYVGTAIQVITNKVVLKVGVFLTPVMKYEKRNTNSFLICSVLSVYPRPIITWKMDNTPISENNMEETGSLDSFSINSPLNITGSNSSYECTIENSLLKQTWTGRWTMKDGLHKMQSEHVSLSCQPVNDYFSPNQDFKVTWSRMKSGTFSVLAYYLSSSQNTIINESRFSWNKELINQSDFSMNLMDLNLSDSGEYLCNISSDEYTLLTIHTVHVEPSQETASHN
# B1: anti-VISTA clone V4-C28 IgG1 (antibody, V domains shown)
# VH: QVQLQESGPGLVKPSDTLSLTCTVSGYSITSDYTWNWIRQTPGKGLEWIGHITYSGSVSYNPSLRSRVTISRDTSKNQFSLKLSSVTAADTATYSCARALYYPWYFDVWGTGTTVTVSS
# VL: EIVLTQSPATLSLSPGERATLSCRASSSVGYIHWYQQKPGQAPRPLIYATSYRATGIPARFSGSGSGTDNTLTISSLEPEDSAVYYCQQWSSYPPITFGGGTKLEVKR
# notes: Human IgG1/kappa
# B2: anti-VISTA clone V4-C30 IgG1 (antibody, V domains shown)
# VH: B1 VH
# VL: B1 VL with S51Y
# notes: Human IgG1/kappa
# B3: anti-VISTA clone V4-C31 IgG1 (antibody, V domains shown)
# VH: B1 VH
# VL: B1 VL with S51Y, A54T
# notes: Human IgG1/kappa
# What was measured:
# PD-1 (ELISA coat) [1] = target: T5, PD-1 (ELISA coat) (human, UniProt Q15116 25-167, limits assumed); test: ELISA, plate coated with PD1
# T5 construct: Species read from the list 'human VISTA, PD-1, PD-L1, ...'
# B7H3 (ELISA coat) [2] = target: T1, B7H3 (ELISA coat); test: ELISA, plate coated with B7H3
# B7H4 (ELISA coat) [3] = target: T2, B7H4 (ELISA coat); test: ELISA, plate coated with B7H4
# B7H6 (ELISA coat) [4] = target: T3, B7H6 (ELISA coat); test: ELISA, plate coated with B7H6
# B7H7 (ELISA coat) [5] = target: T4, B7H7 (ELISA coat); test: ELISA, plate coated with B7H7
# CTLA4 (ELISA coat) [6] = target: T6, CTLA4 (ELISA coat) (human, UniProt P16410 36-162, limits assumed); test: ELISA, plate coated with CTLA4
# T6 construct: Species read from the list 'human VISTA, PD-1, PD-L1, ...'
# human PD-L1 (ELISA coat) [7] = target: T7, human PD-L1 (ELISA coat) (human, UniProt Q9NZQ7 19-239); test: ELISA, plate coated with B7H1 (PDL1)
# [8] = target: T8, human VISTA polypeptide (ELISA coat) (human, UniProt Q9H7M9 33-194); test: ELISA, plate coated with B7H5 (VISTA)
# T8 construct: Recombinant protein (Sino Biological) coated on ELISA plates; construct not described
# PD-1 (ELISA coat) [9] = target: T5, PD-1 (ELISA coat); test: ELISA, plate coated with PD1; remark: listed apart in the source
# B7H3 (ELISA coat) [10] = target: T1, B7H3 (ELISA coat); test: ELISA, plate coated with B7H3; remark: listed apart in the source
# B7H4 (ELISA coat) [11] = target: T2, B7H4 (ELISA coat); test: ELISA, plate coated with B7H4; remark: listed apart in the source
# B7H6 (ELISA coat) [12] = target: T3, B7H6 (ELISA coat); test: ELISA, plate coated with B7H6; remark: listed apart in the source
# B7H7 (ELISA coat) [13] = target: T4, B7H7 (ELISA coat); test: ELISA, plate coated with B7H7; remark: listed apart in the source
# CTLA4 (ELISA coat) [14] = target: T6, CTLA4 (ELISA coat); test: ELISA, plate coated with CTLA4; remark: listed apart in the source
# human PD-L1 (ELISA coat) [15] = target: T7, human PD-L1 (ELISA coat); test: ELISA, plate coated with B7H1 (PDL1); remark: listed apart in the source
# PD-1 (ELISA coat) [16] = target: T5, PD-1 (ELISA coat); test: ELISA, plate coated with PD1; remark: listed apart in the source
# B7H3 (ELISA coat) [17] = target: T1, B7H3 (ELISA coat); test: ELISA, plate coated with B7H3; remark: listed apart in the source
# B7H4 (ELISA coat) [18] = target: T2, B7H4 (ELISA coat); test: ELISA, plate coated with B7H4; remark: listed apart in the source
# B7H6 (ELISA coat) [19] = target: T3, B7H6 (ELISA coat); test: ELISA, plate coated with B7H6; remark: listed apart in the source
# B7H7 (ELISA coat) [20] = target: T4, B7H7 (ELISA coat); test: ELISA, plate coated with B7H7; remark: listed apart in the source
# CTLA4 (ELISA coat) [21] = target: T6, CTLA4 (ELISA coat); test: ELISA, plate coated with CTLA4; remark: listed apart in the source
# human PD-L1 (ELISA coat) [22] = target: T7, human PD-L1 (ELISA coat); test: ELISA, plate coated with B7H1 (PDL1); remark: listed apart in the source
# T6 sequence (P16410 36-162 limits assumed): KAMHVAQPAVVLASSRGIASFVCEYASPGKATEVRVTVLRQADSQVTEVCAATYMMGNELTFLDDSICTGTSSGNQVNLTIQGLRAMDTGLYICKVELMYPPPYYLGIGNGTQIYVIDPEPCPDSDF
# T5 sequence (Q15116 25-167 limits assumed): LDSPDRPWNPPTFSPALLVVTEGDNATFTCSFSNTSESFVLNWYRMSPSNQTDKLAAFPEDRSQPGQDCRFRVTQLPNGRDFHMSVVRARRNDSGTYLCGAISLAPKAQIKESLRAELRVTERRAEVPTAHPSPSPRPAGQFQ
# T7 sequence (Q9NZQ7 19-239 limits assumed): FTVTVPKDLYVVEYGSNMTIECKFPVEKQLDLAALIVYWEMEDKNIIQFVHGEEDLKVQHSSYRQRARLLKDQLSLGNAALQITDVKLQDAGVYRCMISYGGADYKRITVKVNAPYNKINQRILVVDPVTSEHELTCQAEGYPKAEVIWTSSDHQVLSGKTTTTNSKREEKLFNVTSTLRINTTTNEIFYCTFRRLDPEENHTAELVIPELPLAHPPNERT
binder,measurement,setting,value
B1,binding result,PD-1 (ELISA coat) [1],no binding (tested: log -7.5 (about 3e-8 M))
same,binding result,B7H3 (ELISA coat) [2],no binding (tested: log -7.5 (about 3e-8 M))
same,binding result,B7H4 (ELISA coat) [3],no binding (tested: log -7.5 (about 3e-8 M))
same,binding result,B7H6 (ELISA coat) [4],no binding (tested: log -7.5 (about 3e-8 M))
same,binding result,B7H7 (ELISA coat) [5],no binding (tested: log -7.5 (about 3e-8 M))
same,binding result,CTLA4 (ELISA coat) [6],no binding (tested: log -7.5 (about 3e-8 M))
same,binding result,human PD-L1 (ELISA coat) [7],no binding (tested: log -7.5 (about 3e-8 M))
same,EC50 (read off the curve),[8],~0.02 nM
B2,binding result,PD-1 (ELISA coat) [9],no binding (tested: log -7.5 (about 3e-8 M))
same,binding result,B7H3 (ELISA coat) [10],no binding (tested: log -7.5 (about 3e-8 M))
same,binding result,B7H4 (ELISA coat) [11],no binding (tested: log -7.5 (about 3e-8 M))
same,binding result,B7H6 (ELISA coat) [12],no binding (tested: log -7.5 (about 3e-8 M))
same,binding result,B7H7 (ELISA coat) [13],no binding (tested: log -7.5 (about 3e-8 M))
same,binding result,CTLA4 (ELISA coat) [14],no binding (tested: log -7.5 (about 3e-8 M))
same,binding result,human PD-L1 (ELISA coat) [15],no binding (tested: log -7.5 (about 3e-8 M))
B3,binding result,PD-1 (ELISA coat) [16],no binding (tested: log -7.5 (about 3e-8 M))
same,binding result,B7H3 (ELISA coat) [17],no binding (tested: log -7.5 (about 3e-8 M))
same,binding result,B7H4 (ELISA coat) [18],no binding (tested: log -7.5 (about 3e-8 M))
same,binding result,B7H6 (ELISA coat) [19],no binding (tested: log -7.5 (about 3e-8 M))
same,binding result,B7H7 (ELISA coat) [20],no binding (tested: log -7.5 (about 3e-8 M))
same,binding result,CTLA4 (ELISA coat) [21],no binding (tested: log -7.5 (about 3e-8 M))
same,binding result,human PD-L1 (ELISA coat) [22],no binding (tested: log -7.5 (about 3e-8 M))
